Results published in the supplement of paper PMC11246515.
± gives the standard deviation of the averaged measurements.

Assay: total protein half-life in vivo (active degradation + dilution); higher = more stable protein
[1] = E. coli NCM3722 delta-clpP delta-lon delta-hslV, growth: N-lim chemostat, doubling time 6 h
[2] = E. coli NCM3722 delta-clpP, growth: N-lim chemostat, doubling time 6 h
[3] = E. coli NCM3722 delta-hslV, growth: N-lim chemostat, doubling time 6 h
[4] = E. coli NCM3722 delta-lon, growth: N-lim chemostat, doubling time 6 h
[5] = E. coli NCM3722 delta-smpB, growth: N-lim chemostat, doubling time 6 h
[6] = wild type E. coli NCM3722, growth: C-lim chemostat, doubling time 3 h
[7] = wild type E. coli NCM3722, growth: C-lim chemostat, doubling time 6 h
[8] = wild type E. coli NCM3722, growth: C-lim chemostat, doubling time 12 h
[9] = wild type E. coli NCM3722, growth: N-lim chemostat, doubling time 6 h
[10] = wild type E. coli NCM3722, growth: N-lim chemostat, doubling time 12 h
[11] = wild type E. coli NCM3722, growth: P-lim chemostat, doubling time 6 h
[12] = wild type E. coli NCM3722, growth: P-lim chemostat, doubling time 12 h

Sequence | total protein half-life in vivo [1] [h] | total protein half-life in vivo [2] [h] | total protein half-life in vivo [3] [h] | total protein half-life in vivo [4] [h] | total protein half-life in vivo [5] [h] | total protein half-life in vivo [6] [h] | total protein half-life in vivo [7] [h] | total protein half-life in vivo [8] [h] | total protein half-life in vivo [9] [h] | total protein half-life in vivo [10] [h] | total protein half-life in vivo [11] [h] | total protein half-life in vivo [12] [h]
MAEFETTFADLGLKAPILEALNDLGYEKPSPIQAECIPHLLNGRDVLGMAQTGSGKTAAFSLPLLQNLDPELKAPQILVLAPTRELAVQVAEAMTDFSKHMRGVNVVALYGGQRYDVQLRALRQGPQIVVGTPGRLLDHLKRGTLDLSKLSGLVLDEADEMLRMGFIEDVETIMAQIPEGHQTALFSATMPEAIRRITRRFMKEPQEVRIQSSVTTRPDISQSYWTVWGMRKNEALVRFLEAEDFDAAIIFVRTKNATLEVAEALERNGYNSAALNGDMNQALREQTLERLKDGRLDILIATDVAARGLDVERISLVVNYDIPMDSESYVHRIGRTGRAGRAGRALLFVENRERRLLRNIERTMKLTIPEVELPNAELLGKRRLEKFAAKVQQQLESSDLDQYRALLSKIQPTAEGEELDLETLAAALLKMAQGERTLIVPPDAPMRPKREFRDRDDRGPRDRNDRGPRGDREDRPRRERRDVGDMQLYRIEVGRDDGVEVRHIVGAIANEGDISSRYIGNIKLFASHSTIELPKGMPGEVLQHFTRTRILNKPMNMQLLGDAQPHTGGERRGGGRGFGGERREGGRNFSGERREGGRGDGRRFSGERREGRAPRRDDSTGRRRFGGDA [P0A9P6] | 5.66 ± 0.077 | 0.972 ± 0.029 | 0.567 ± 0.1 | 4.78 ± 0.32 | 0.849 ± 0.089 | 1.4 ± 0.34 | 1.34 ± 0.29 | 1.19 ± 0.17 | 2.26 ± 2 | 0.902 ± 0.095 | 0.635 ± 0.37 | 0.864 ± 0.3
MAEIGIFVGTMYGNSLLVAEEAEAILTAQGHKATVFEDPELSDWLPYQDKYVLVVTSTTGQGDLPDSIVPLFQGIKDSLGFQPNLRYGVIALGDSSYVNFCNGGKQFDALLQEQSAQRVGEMLLIDASENPEPETESNPWVEQWGTLLS | 6.12 ± 0.9 | 6.03 ± 1.5 | 5.34 ± 0.23 | 6 ± 0.2 | 5.34 ± 0.1 | 3.57 ± 0.5 | 5.8 ± 0.3 | 13.42 ± 0.023 | 5.7 ± 0.42 | 9.75 ± 0.96 | 6.03 ± 0.35 | –
MAELSDQEMLRYNRQIILRGFDFDGQEALKDSRVLIVGLGGLGCAASQYLASAGVGNLTLLDFDTVSLSNLQRQTLHSDATVGQPKVESARDALTRINPHIAITPVNALLDDAELAALIAEHDLVLDCTDNVAVRNQLNAGCFAAKVPLVSGAAIRMEGQITVFTYQDGEPCYRCLSRLFGENALTCVEAGVMAPLIGVIGSLQAMEAIKMLAGYGKPASGKIVMYDAMTCQFREMKLMRNPGCEVCGQ | 5.3 ± 1.4 | 4.37 ± 0.4 | 4.1 ± 0.1 | 6.67 ± 1.7 | 4.36 ± 0.4 | 3.03 ± 0.46 | 6.09 ± 0.5 | 11.3 ± 0.97 | 4.66 ± 0.53 | 9.95 | 5.7448 ± 0.0056 | 13.2 ± 1.6
MAEMKNLKIEVVRYNPEVDTAPHSAFYEVPYDATTSLLDALGYIKDNLAPDLSYRWSCRMAICGSCGMMVNNVPKLACKTFLRDYTDGMKVEALANFPIERDLVVDMTHFIESLEAIKPYIIGNSRTADQGTNIQTPAQMAKYHQFSGCINCGLCYAACPQFGLNPEFIGPAAITLAHRYNEDSRDHGKKERMAQLNSQNGVWSCTFVGYCSEVCPKHVDPAAAIQQGKVESSKDFLIATLKPR [P0AC47] | – | 5.78 ± 0.38 | 6.96 ± 1 | 5.92 ± 0.62 | 5.82 ± 0.086 | 3.07 ± 0.19 | 5.76 ± 0.11 | 11 ± 2.1 | 6.1 ± 0.5 | 12.2 ± 1.8 | 5.48 ± 0.44 | 13.1 ± 1.2
MAESTVTADSKLTSSDTRRRIWAIVGASSGNLVEWFDFYVYSFCSLYFAHIFFPSGNTTTQLLQTAGVFAAGFLMRPIGGWLFGRIADKHGRKKSMLLSVCMMCFGSLVIACLPGYETIGTWAPALLLLARLFQGLSVGGEYGTSATYMSEVAVEGRKGFYASFQYVTLIGGQLLALLVVVVLQHTMEDAALREWGWRIPFALGAVLAVVALWLRRQLDETSQQETRALKEAGSLKGLWRNRRAFIMVLGFTAAGSLCFYTFTTYMQKYLVNTAGMHANVASGIMTAALFVFMLIQPLIGALSDKIGRRTSMLCFGSLAAIFTVPILSALQNVSSPYAAFGLVMCALLIVSFYTSISGILKAEMFPAQVRALGVGLSYAVANAIFGGSAEYVALSLKSIGMETAFFWYVTLMAVVAFLVSLMLHRKGKGMRL [P0AEX3] | – | – | – | – | 1.61 ± 0.23 | 2.88 ± 0.36 | 4.51 | 10 ± 2.4 | 2.01 | – | 4.35 ± 0.23 | 6.27 ± 0.29
MAGESFILMGVSGSGKTLIGSKVAALLSAKFIDGDDLHPAKNIDKMSQGIPLSDEDRLPWLERLNDASYSLYKKNETGFIVCSSLKKQYRDILRKGSPHVHFLWLDGDYETILARMQRRAGHFMPVALLKSQFEALERPQADEQDIVRIDINHDIANVTEQCRQAVLAIRQNRICAKEGSASDQRCE | 4.25 | – | – | – | – | 2.82 ± 0.78 | 2.8 ± 0.43 | 3.67 | 1.6 | – | – | –
MAGHSKWANTRHRKAAQDAKRGKIFTKIIRELVTAAKLGGGDPDANPRLRAAVDKALSNNMTRDTLNRAIARGVGGDDDANMETIIYEGYGPGGTAIMIECLSDNRNRTVAEVRHAFSKCGGNLGTDGSVAYLFSKKGVISFEKGDEDTIMEAALEAGAEDVVTYDDGAIDVYTAWEEMGKVRDALEAAGLKADSAEVSMIPSTKADMDAETAPKLMRLIDMLEDCDDVQEVYHNGEISDEVAATL [P0A8A0] | 5.28 ± 0.71 | 4.61 ± 0.6 | 3.03 ± 0.19 | 3.29 ± 0.17 | 2.94 ± 0.12 | 2.524 ± 0.013 | 4.01 ± 0.095 | 7.21 ± 0.53 | 3.15 ± 0.058 | 4.09 ± 0.034 | 3.69 ± 0.66 | 6.79 ± 0.84
